Measurements reported in publication PMC2952836.

Legend:
human α-thrombin (human) [1] = molecular target: human α-thrombin (human) (UniProt P00734)
human α-thrombin (human) [2] = molecular target: human α-thrombin (human) (UniProt P00734); assay: kinetics of thrombin inactivation

| Substance | second-order rate constant of uncatalyzed thrombin inactivation (no GAG) (human α-thrombin (human) [1]) [M⁻¹ s⁻¹] | K (TH,HCII), dissociation constant of ternary complex formation with heparin (human α-thrombin (human) [2]) [µM] | K (TDS,HCII), dissociation constant of ternary complex formation with DS (human α-thrombin (human) [2]) [µM] |
| --- | --- | --- | --- |
| deglycosylated plasma heparin cofactor II (from UniProt P05546 20-499) (natural protein) | 420 | 0.018 | – |
| native plasma heparin cofactor II (from UniProt P05546 20-499) (natural protein) | – | – | 0.022 |
